T1: AtSR1 (CAMTA3) CG-1 domain (Arabidopsis thaliana, UniProt Q8GSA7 1-153)
T1 sequence: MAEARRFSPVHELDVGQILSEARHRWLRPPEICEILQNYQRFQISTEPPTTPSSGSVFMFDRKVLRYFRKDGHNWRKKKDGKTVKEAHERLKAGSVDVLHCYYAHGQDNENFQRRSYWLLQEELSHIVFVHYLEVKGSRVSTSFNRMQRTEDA

B1: SAUR41 promoter fragment (dsDNA)
DNA 1: AACGAAGGGCCCGCGCTGTACTCGAT
DNA 2: ATCGAGTACAGCGCGGGCCCTTCGTT
B2: At5g41750-1 promoter fragment (dsDNA)
DNA 1: TCTTTAGTCGTCGCGAATTCTTTGGG
DNA 2: CCCAAAGAATTCGCGACGACTAAAGA
B3: PDF1.4 promoter fragment (dsDNA)
DNA 1: CGTGAAAGTCACGCGCCAAGAACAAA
DNA 2: TTTGTTCTTGGCGCGTGACTTTCACG
B4: At5g41750-2 promoter fragment (dsDNA)
DNA 1: TCATTGGTCCTCGCGACTATAACAAA
DNA 2: TTTGTTATAGTCGCGAGGACCAATGA
B5: IAA19 promoter fragment (dsDNA)
DNA 1: AAAAAGCACGACGCGGTGCCATTACT
DNA 2: AGTAATGGCACCGCGTCGTGCTTTTT
B6: NPR1 promoter fragment (dsDNA)
DNA 1: AAAGTAAAAAACGCGGAAAGCAATAA
DNA 2: TTATTGCTTTCCGCGTTTTTTACTTT
B7: ADR1 promoter fragment (dsDNA)
DNA 1: ATTAATCAAAACGCGTAAAAAGAGTA
DNA 2: TACTCTTTTTACGCGTTTTGATTAAT
B8: IAA1-2 promoter fragment (dsDNA)
DNA 1: AAGAAAGAAGCCGCGTCCAAAATCTT
DNA 2: AAGATTTTGGACGCGGCTTCTTTCTT
B9: DWF4 promoter fragment (dsDNA)
DNA 1: ATAAGCCTATACGCGCTCAAAGTATG
DNA 2: CATACTTTGAGCGCGTATAGGCTTAT

What follows are binders tested against T1, AtSR1 (CAMTA3) CG-1 domain (assay: EMSA; EMSA; buffer, salt, pH and temperature not given in the material). Settings: protein: recombinant; tags: 6His (pET32a-derived plasmid).

Row | Binder | binding result
1 | B1 | no binding
2 | B2 | no binding
3 | B3 | binds
4 | B4 | binds
5 | B5 | binds
6 | B6 | binds
7 | B7 | binds
8 | B8 | binds
9 | B9 | binds
